Entries after “also recorded” stand apart in the source; their conditions may differ.
Key:
[1] = test system: newborn rat ventricular myocytes; assay: Whole-cell voltage clamp of expressed HCN current in newborn rat ventricular myocytes; format: cell-based; settings: for V1/2 / s: fit of average data
Protocol: Adult rats were anesthetized with ketamine-xylazine before cardiectomy, and neonatal rats decapitated. Newborn rat ventricular myocyte cultures were prepared as previously described (Protas and Robinson, 1999). Briefly, 1-2-day-old Wistar rats were euthanized, hearts were quickly removed and ventricles were dissociated using a standard trypsinization procedure. Myocytes were harvested, preplated to reduce fibroblast proliferation, cultured initially in serum-containing medium (except when being transfected with plasmids as described below), and then incubated in serum free medium (SFM) at 37° C., 5% CO2 after 24 h. Action potential studies were conducted on 4-day-old monolayer cultures plated directly onto fibronectin-coated 9×22 mm glass coverslips. For voltage clamp experiments, 4-6 day old monolayer cultures were resuspended by brief (2-3 min) exposure to 0.25% trypsin, then replated onto fibronectin-coated coverslips and studied within 2-8 h.
Adenoviral infection of the newborn ventricular myocytes was performed on cell monolayer cultures 4 days after initial plating. Cells were exposed to a virus-containing mix (m.o.i. 20, in 250 μl of culture medium) for 2 h, rinsed twice and incubated in SFM at 37° C., 5% CO2 for 24-48 hours prior to the cells being resuspended as described above for electrophysiological study.
The whole-cell patch clamp technique was employed to record mHCN2 current from cultured myocytes. Experiments were carried out on cells superfused at 35° C. The external solution contained (mM): NaCl, 140; NaOH, 2.3; MgCl2, 1; KCl, 10; CaCl2, 1; HEPES, 5; glucose, 10; pH 7.4. MnCl2 (2 mM) and BaCl2 (4 mM) were added to block other currents. The pipette solution contained (mM): aspartic acid, 130; KOH, 146; NaCl, 10; CaCl2, 2; EGTA-KOH, 5; Mg-ATP, 2; HEPES-KOH, 10; pH 7.2.
To measure the HCN activation curve, a standard two-step protocol was employed. Hyperpolarizing steps from −25 to −135 mV for mHCN2 and from −5 or −15 to −135 mV for mE324A were applied from a holding potential of −10 mV, followed by a tail current step (to −125 or −135 mV). The duration of test steps was longer at less hyperpolarized potential for mHCN2 channels, to more closely approach steady-state activation at all voltages. The normalized plot of tail current versus test voltage was fit with a Boltzmann function and then the voltage of half maximum activation (V1/2) and slope factor(s) were defined from the fitting. Activation kinetics were determined from the same traces, while deactivation kinetics were determined from traces recorded at each test potential after achieving full activation by a prepulse to −135 mV. Time constants were then obtained by fitting the early time course of activation or deactivation current traces with a monoexponential function; the initial delay and any late slow activation or deactivation phase were ignored (Qu et al., 2001; Altomare et al., 2001). Current densities are expressed as the value of the time-dependent component of current amplitude, measured at the end of the test potential and normalized to cell membrane capacitance. Records were not corrected for liquid junction potential, which was previously determined to be 9.8 mV under these conditions (Qu et al., 2001).

Xenopus oocytes = assay: Two-microelectrode voltage clamp of expressed HCN current in Xenopus oocytes; format: cell-based, Xenopus laevis
[2] = test system: dogs with complete AV block; assay: Tandem biological and electronic pacemakers in dogs with complete AV block (injection into left bundle branch); format: in vivo, dog
Protocol: Adult mongrel dogs weighing 22-25 kg were anesthetized with propofol 6 mg/kg IV and inhalational isoflurane (1.5%-2.5%). Using a steerable catheter, saline (n=5), AdmHCN2 (n=6) or AdmE324A (n=4) were injected into the left bundle branch (LBB) as described previously (Plotnikov et al., 2004). In 2 additional dogs AdmE324A was injected into the LV septal myocardium as an internal control. Complete AV block was induced via radiofrequency ablation and each site of injection was paced via catheter electrode to distinguish electrocardiographically the origin of the idioventricular rhythm during the follow up period.
An electronic pacemaker (Discovery II, Flextend lead; Guidant, Indianapolis, Ind.) was implanted and set at VVI 45 bpm. ECG, 24 hour Holter monitoring, pacemaker log record check, and overdrive pacing at 80 bpm were performed daily for 14 days. To evaluate beta-adrenergic responsiveness, on day 14, epinephrine (1.0, 1.5 and 2.0 μg/kg/min for up to 10 min each) was infused to an endpoint of a 50% increase in idioventricular rate or ventricular arrhythmia (single ventricular premature beats having a morphology other than that of the dominant idioventricular rhythm or ventricular tachycardia), whichever occurred first. If none of the above responses was observed within 10 min after onset of the maximal dose of 2 μg/kg/min, the infusion was terminated.
Data are presented as means±SEM. […] One-way ANOVA was used to evaluate the effect of an implanted construct on electrophysiological parameters. Subsequent analysis was performed using Bonferroni's test where equal variances were assumed and the Games-Howell test where variances were unequal. A two-way contingency table analysis was conducted to evaluate whether epinephrine had different effects across three groups. Data were analyzed using SPSS for Windows software (SPSS, Inc.). P<0.05 was considered to be significant.
Complete AV block was induced via radiofrequency ablation, and electronic pacemakers were implanted into the right ventricular apical endocardium and set a VV1 45 bpm. ECG and 24-h monitoring were performed daily for 14 days. Beta-adrenergic responsiveness was also evaluated as described above.
Escape time was evaluated daily by performing three 30-s periods of ventricular overdrive pacing at 80 bpm followed by an abrupt cessation of pacing. The average time between the final electronically paced beat and the first intrinsic beat was then determined. […] There was a different result with regard to basal heart rates throughout the 14-day period, however.

[3] = test system: cell-free patches from Xenopus oocytes; settings: cited from earlier work
[4] = 10 μM cAMP in the pipette solution

B1: mE324A: mHCN2 channel with E324A point mutation, expressed from cRNA or adenoviral construct AdmE324A (protein, UniProt O88703 1-863, looked up, variant E324A)
Potassium/sodium …: MDARGGGGRPGDSPGTTPAPGPPPPPPPPAPPQPQPPPAPPPNPTTPSHPESADEPGPRARLCSRDSACTPGAAKGGANGECGRGEPQCSPEGPARGPKVSFSCRGAASGPSAAEEAGSEEAGPAGEPRGSQASFLQRQFGALLQPGVNKFSLRMFGSQKAVEREQERVKSAGAWIIHPYSDFRFYWDFTMLLFMVGNLIIIPVGITFFKDETTAPWIVFNVVSDTFFLMDLVLNFRTGIVIEDNTEIILDPEKIKKKYLRTWFVVDFVSSIPVDYIFLIVEKGIDSEVYKTARALRIVRFTKILSLLRLLRLSRLIRYIHQWAEIFHMTYDLASAVMRICNLISMMLLLCHWDGCLQFLVPMLQDFPSDCWVSINNMVNHSWSELYSFALFKAMSHMLCIGYGRQAPESMTDIWLTMLSMIVGATCYAMFIGHATALIQSLDSSRRQYQEKYKQVEQYMSFHKLPADFRQKIHDYYEHRYQGKMFDEDSILGELNGPLREEIVNFNCRKLVASMPLFANADPNFVTAMLTKLKFEVFQPGDYIIREGTIGKKMYFIQHGVVSVLTKGNKEMKLSDGSYFGEICLLTRGRRTASVRADTYCRLYSLSVDNFNEVLEEYPMMRRAFETVAIDRLDRIGKKNSILLHKVQHDLSSGVFNNQENAIIQEIVKYDREMVQQAELGQRVGLFPPPPPPQVTSAIATLQQAVAMSFCPQVARPLVGPLALGSPRLVRRAPPGPLPPAASPGPPAASPPAAPSSPRAPRTSPYGVPGSPATRVGPALPARRLSRASRPLSASQPSLPHGVPAPSPAASARPASSSTPRLGPAPTARTAAPSPDRRDSASPGAASGLDPLDSARSRLSSNL
[1]
  activation kinetics compared with mHCN2: faster
  activation threshold compared with mHCN2: less negative
[1]; [4]
  shift of V1/2 by cAMP: 5.6 mV
  V1/2: −40.7 mV
  s: 8.7 mV
[1]; 6 matched cell cultures
  percentage of myocytes expressing current: 36.6%
[1]; at −135 mV
  current density, times smaller than that of mHCN2: about 2.5 times
[1]; absence of cAMP
  V1/2: −46.3 mV
  s: 9.1 mV
[1]; mean of individual Boltzmann fits
  slope factor s: 9.6±0.4 mV
[1]; mean of individual Boltzmann fits, adenoviral infection
  V1/2 (voltage of half maximum activation): −46.9±1.2 mV
[1]; measured at −135 mV
  current density: 21.0±3.5 pA/pF
Xenopus oocytes; 5 mM Cs+
  effect of Cs+ on inward current: blocked; also recorded: large inhibition
Xenopus oocytes; fully activated current/voltage relation
  reversal potential: ~−40 mV
[2]; 14 days, electronic pacemaker set at VVI 45 bpm
  beats triggered by the electronic pacemaker, of all beats: 36±7%
[2]; day 14
  arrhythmias during epinephrine infusion: no arrhythmias were seen
[2]; days 1-7 and 8-14
  mean basal heart rate compared with saline group: significantly faster
[2]; epinephrine 1 μg/kg/min, day 14
  animals that achieved a 50% increase in rate at the lowest epinephrine dose: 100%
[2]; lowest dose of epinephrine
  increase in heart rate: > 50%
[2]; representative animal, day 14
  control rate prior to epinephrine: 52 bpm
[2]; representative animal, epinephrine 1 μg/kg/min
  rate with epinephrine: 81 bpm

B2: HCN1: HCN1 isoform of hyperpolarization-activated, cyclic nucleotide-gated ion channel (protein, UniProt O60741 1-890, looked up)
Potassium/sodium …: MEGGGKPNSSSNSRDDGNSVFPAKASATGAGPAAAEKRLGTPPGGGGAGAKEHGNSVCFKVDGGGGGGGGGGGGEEPAGGFEDAEGPRRQYGFMQRQFTSMLQPGVNKFSLRMFGSQKAVEKEQERVKTAGFWIIHPYSDFRFYWDLIMLIMMVGNLVIIPVGITFFTEQTTTPWIIFNVASDTVFLLDLIMNFRTGTVNEDSSEIILDPKVIKMNYLKSWFVVDFISSIPVDYIFLIVEKGMDSEVYKTARALRIVRFTKILSLLRLLRLSRLIRYIHQWEEIFHMTYDLASAVVRIFNLIGMMLLLCHWDGCLQFLVPLLQDFPPDCWVSLNEMVNDSWGKQYSYALFKAMSHMLCIGYGAQAPVSMSDLWITMLSMIVGATCYAMFVGHATALIQSLDSSRRQYQEKYKQVEQYMSFHKLPADMRQKIHDYYEHRYQGKIFDEENILNELNDPLREEIVNFNCRKLVATMPLFANADPNFVTAMLSKLRFEVFQPGDYIIREGAVGKKMYFIQHGVAGVITKSSKEMKLTDGSYFGEICLLTKGRRTASVRADTYCRLYSLSVDNFNEVLEEYPMMRRAFETVAIDRLDRIGKKNSILLQKFQKDLNTGVFNNQENEILKQIVKHDREMVQAIAPINYPQMTTLNSTSSTTTPTSRMRTQSPPVYTATSLSHSNLHSPSPSTQTPQPSAILSPCSYTTAVCSPPVQSPLAARTFHYASPTASQLSLMQQQPQQQVQQSQPPQTQPQQPSPQPQTPGSSTPKNEVHKSTQALHNTNLTREVRPLSASQPSLPHEVSTLISRPHPTVGESLASIPQPVTAVPGTGLQAGGRSTVPQRVTLFRQMSSGAIPPNRGVPPAPPPPAAALPRESSSVLNTDPDAEKPRFASNL
[3]
  shift of activation curve to more positive potentials by cAMP: 4 mV
